Experimental data reported in the RNAGym collection of RNA variant scans (doi:10.1073/pnas.2313332121).
Fewer inactive variants are shown than the library holds.

B1: TPR 5TU (parent)
chain: GGAUCUUCUCGAUCUAACAAAAAAGACAAAUCUGCCACAAAGCUUGAGAGCAUCUUCGGAUGCAGAGGCGGCAGCCUUCGGUGGCGCGAUAGCGCCAACGUUCUCAACUAUGACACGCAAAACGCGUGCUCCGUUGAAUGGAGUUUAUCAUG

Variants of: B1
Experiment: polymerase ribozyme fitness, log enrichment relative to wild type (log ratio); higher = more active; in vitro selection for triplet polymerase activity
How it was run: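 Fitness is a logarithmic measure of how a genotype enriched relative to the wild type, with replicate averages weighted by inverse variance. The logarithm uses base 2, and enrichment came from Illumina sequencing of input and output libraries. Those libraries were PCR-built, transcribed mutants of each subunit of a heterodimeric triplet polymerase ribozyme, passed through one triplicate in vitro selection round that included frozen incubation at −7 °C, gel excision of extended constructs and streptavidin-bead capture. Genotypes were kept only if they had ≥10 input reads and ≥1 read per output.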

Going from GGAUCUUCUCGAUCUAACAAAAAAGACAAAUCUGCUACAAAGCUUGAGAGCGUCUUCGGAUGCAGAGGUGGCAGCCUUCGGUGGUGCGAUAGCGCCAACGUUCUCAACGAUGACACGAAAAACGCGUGCUCCGUUGAAUGGAGUUUAUCAUG [C36U A52G C69U C85U U109G C118A] to GGAUCUUCUAGAUCUAACAAAAAAGAGAAAUCUGCCACAAAGCUUGAGAGCAUCUUCGGAUGCAGAGGCGGCAGCCCUCGGUAGCGCGAUAGCGCCAACGUUCUCAACUAUGACACGCAAAACGCGUGCUCCGUUGAAUGGAGUUUAUCAUG [C10A C27G U77C G83A], the “polymerase ribozyme fitness (log ratio)” value falls from -3.73 to ≤ -4.2.

First: GGAUCUUCUCGAUCUAACAAAAAAGACAACUCUGCCACAAAGCGUGAGAGCAUCUUCGGAUGCAGAGGCGGCAGCCUUCGGUGGCGCGAUAGCGCCAACGUUCUCAAGUAUGACACGCAAAACGCGUGCUCCGUUGAAUGGAGUGUAUCAUG [A30C U44G C108G U145G]
Second: GGAUCUUCUCGAUCUAACAAAAAAGACAAAUCUGCCACAAAGCUUGAGAGCAUCUUCGGAUGCAGAGGCGGCAGCCUUCGGUGGCGCGAUAGUGCCAACGUUCUCAACUAUGACACGCAAAACGCGUGCUCCGUUGAAUGGAGUUUAUGAUG [C93U C149G]
The “polymerase ribozyme fitness (log ratio)” value of the first is lower: ≤ -4.2 for the first, -4.08 for the second.

GGAUCUUCUCGAUCUAACAAAGAAGACAAAUCUGCCACAGAGCUUGAGAGCCUCUUCGGAUGCAGAGGCGGCAGUCUUCGGUGGCGCGAUAGCGCCAAAGUUCUCAGUUAUGACACGCAAAACGCGUGCUCCGAUGAAUGGAGUUUAUCAUG [A22G A40G A52C C75U C99A A107G C108U U134A] and GGAUCUUCUCGAUCUAUCAAAAAAGACAAACCUGCCACAAAGCUUGAGAACAUCUUCGGAUGCUGAGGAGGCAGCCUUCGGUGGCGCGAUAGCGCCAAUGUUCUCAACUAUGACACGCAAAACGCGUGCUCCGUUGAAUGGAGUUUAUCAUG [A17U U31C G50A A64U C69A C99U] cannot be ordered by “polymerase ribozyme fitness (log ratio)” value: ≤ -4.2 for the first, ≤ -4.2 for the second.

Going from GGAUCUUCUCGAUCUAACAAAAAAGACAAAUCUGCUACAAAGCUUGAGAGCAUCUUCGGAUGCAGAGGCGGCAGCCUUCGGUGGCGCGAUAGCGCCAACGUUCUCAACUAUGACACGCAAAACGCGUCCUCCGUUGAAUUGAGUUUAUCAUG [C36U G128C G140U] to GGAUCUUCUCGAUCUAACAAAAAAGACAAAUCUGCCACAAAGCUUGAGAGCAUCUUCGGAUGCAGAGGCGGCAGCAUUCGGUGGCGCGAUAGCGCCAACGUUCUCAACUAUGACACGCAAAACGCGUCCUCCGUUGAAUGGAGUUUAUCAUG [C76A G128C], the “polymerase ribozyme fitness (log ratio)” value rises from ≤ -4.2 to -3.67.

GGAUCUUCUCGAUCUAACAAAAAAGCCAAAUCUGCCACAAAGCUUGAGAGCAUCUUCGGAUGCAGAGGCGGCAGCCUUCGGUGGCACGAUAGCGCCAACGUACUCAACUAUGACACGCAAAACGCGUUCUGCGUUGAAUGGAGUUUAUCAUG [A26C G86A U102A G128U C131G] and GGAUCUUCUCGAUCUAACAAAAAAGACAAAUCUGCCACAAAGCUUGACAGCAUCUUCGGAUGCAGAGGCGGCAGCCUUCGGUGGCGCGAUAGCGCAAACGUUCUCAACUAAGACACGCAAAACGCGUGCUCCGUUGACUGGAGUUUAUCAUG [G48C C96A U111A A138C] cannot be ordered by “polymerase ribozyme fitness (log ratio)” value: ≤ -4.2 for the first, ≤ -4.2 for the second.

Going from GGAUCUUCUCGAUCUAACAAAAAAGACAAAUCUGCCACAAAGCUUGAGUGCAACUUCGGAUGCAGAGGCGGCAGCCUUCGGUGGCGCGAUAUCGCCAACGUUCUCAACUAUGACAAGCAAAACGCGUGCUCCGUUGAAUGGAGUUUAUCAUG [A49U U53A G92U C116A] to GGAUCUUCUCGAUCUGACAAAAAAGACAAAUCUGCCUCAAAGCUUGAGAGCAUCUUCGGAUGCAGAGGCGGCAGCCUUCGGUGGCGCGAUAGCGCCAACGUUCUCAACUAUGACACGCAAAACGCGUGCUCCGGUGAAUGGAGUUUAUCAUG [A16G A37U U134G], the “polymerase ribozyme fitness (log ratio)” value falls from -1.33 to -3.68.

Going from GGAUCUACUCGAUCUAACAAAGAAGACAAAUCUGCCACAAAGCUUGAGAGCAUCUUCGGAUGCAGAGGCGGAAGCCUUCGGUGGCGCGAUAGCGCCAACGUUCUCAACUAUGACACGCAAAUCGCGUGCUACGUUGAAUGGAGUUUAUCAUG [U7A A22G C72A A122U C131A] to GGAUCUUCUCGACCUAACAAAAAAGACAAAUCUGCCGCAAAGCUUGAGAGCAUCUUCGGAUGCAGAGGCGGCAGCCUUCGGUGGCGCGAUAGCGCCAACGUUCUCAACUAUGACACGCAAAACGCCUGCUCCGUUGAAUGGAGUUUAUCAUG [U13C A37G G126C], the “polymerase ribozyme fitness (log ratio)” value rises from ≤ -4.2 to -1.85.

GGAUCUCCUCGAUCUAAGAAAAAAGACAAAUCUGCCACAAAGGUUGAAAGCAUCUUCCGAUGUAGAGGCGGCAGCGUUCGGUGGCGCGAUAGCGCCAACGUUCUCAACUAUGACACGCAAAACGCGUGCUCCGUUGAAUGGAGUUUAUCAUG [U7C C18G C43G G48A G58C C63U C76G] and GGAUCUUCUCGAUCUUACAAAAAAGACAAAUCUGCCACAAGGCUUGAGAGUAUCUUCGGAUGCAGAGGCGGCACCCUUCGGUGGCGCGAUAGCGUCAACGUUUUCAACUAUGACACGUAAAACGCGUGCUCCAUUGAAUGGAGUUUAUCAUG [A16U A41G C51U G74C C95U C103U C118U G133A] cannot be ordered by “polymerase ribozyme fitness (log ratio)” value: ≤ -4.2 for the first, ≤ -4.2 for the second.

GGAUCUUCUCGAUCUAACAAAAAAGACAAAUCUGCCACAAAGCUUGAGAGCAUCUUCGGAUGCAGAGGCGGCAGCCUUCUGUGGCUCGAUAGCCCCAACGUUCUAAACUAUGACACGCAAAACGCGUGCUCCGAUGAAUGGAGUUUAUCAUG [G80U G86U G94C C105A U134A] and GGAUCUUCUCGAUCUAACUAAAAAGAAAAAUCUGCCACAAAGCUUGAGAGCAUCUUCGGAUGCAGAGGCGGCAGCCUUCGGUGGCGCGAUUGCUCCAACGUUCUCAACUAUGACACGCAAAACGCUUGCUCCGUUGAAUGAACUUUAUCAUG [A19U C27A A91U G94U G126U G141A G143C] cannot be ordered by “polymerase ribozyme fitness (log ratio)” value: ≤ -4.2 for the first, ≤ -4.2 for the second.

With GGAUCUUCUCGAUCCAACAAAAAAGACAAAUCUGCCACACAGCUUGAGAGCAUCUUCGGAUGCAGAGGCGGCAGCCUUCGGUGGCGCGAUAGAGUCAACGUUCUCAACUAUGACAAGCAAUACGCGUGCUCCGUUGAAUGGAGUUUAUCAUG [U15C A40C C93A C95U C116A A121U] the “polymerase ribozyme fitness (log ratio)” value was -1.18.
